Source: publication PMC4559223
Like-named read-outs stand apart in the source and are kept apart here.

Key:
GATA3 C-finger [1] = target: T1, GATA3 C-finger (mouse, UniProt P23772 308-370); experiment: X-ray crystallography
GATA3 C-finger [2] = target: T1, GATA3 C-finger; experiment: X-ray crystallography; remark: listed apart in the source

T1 sequence (P23772 308-370): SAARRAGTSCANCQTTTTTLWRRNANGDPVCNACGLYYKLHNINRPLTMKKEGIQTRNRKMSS

B1: ADJ DNA (crystal) (dsDNA)
DNA 1: TTCTGATAAGACTTATCTGC
DNA 2: AAGCAGATAAGTCTTATCAG
B1: binds (GATA3 C-finger [1]).

B2: OPP DNA (crystal) (dsDNA)
DNA 1: TTGATAAATCAGAGATAACC
DNA 2: AAGGTTATCTCTGATTTATC
B2: binds (GATA3 C-finger [2]).
